Source: the DeepSol protein solubility set

Test: soluble on expression in E. coli; label from the status in PepcDB or PDB records
With “MAPPTTIRTRDQALAPLATLDSQTNCRLKELVQWECQFKGAEYVCSPFKRLFEHCIAPDKSATNYEVTDTYTNS” the “soluble on expression in E. coli” value was “not soluble”.
For “MAPSTPLLTVRGSEGLYMVNGPPHFTESTVFPRESGKNCKVCIFSKDGTLFAWGNGEKVNIISVTNKGLLHSFDLLKAVCLEFSPKNTVLATWQPYTTSKDGTAGIPNLQLYDVKTGTCLKSFIQKKMQNWCPSWSEDETLCARNVNNEVHFFENNNFNTIANKLHLQKINDFVLSPGPQPYKVAVYVPGSKGAPSFVRLYQYPNFAGPHAALANKSFFKADKVTMLWNKKATAVLVIASTDVDKTGASYYGEQTLHYIATNGESAVVQLPKNGPIYDVVWNSSSTEFCAVYGFMPAKATIFNLKCDPVFDFGTGPRNAAYYSPHGHILVLAGFGNLRGQMEVWDVKNYKLISKPVASDSTYFAWCPDGEHILTATCAPRLRVNNGYKIWHYTGSILHKYDVPSNAELWQVSWQPFLDGIFPAKTITYQAVPSEVPNEEPKVATAYRPPALRNKPITNSKLHEEEPPQNMKPQSGNDKPLSKTALKNQRKHEAKKAAKQEARSDKSPDLAPTPAPQSTPRNTVSQSISGDPEIDKKIKNLKKKLKAIEQLKEQAATGKQLEKNQLEKIQKETALLQELEDLKLGI”, the “soluble on expression in E. coli” value was “soluble”.
For “MAPTSSIEIVLDKTTASVGEIVTASINIKNITNFSGCQLNMKYDPAVLQPVTSSGVAYTKSTMPGAGTILNSDFNLRQVADNDLEKGILNFSKAYVSLDDYRTAAAPEQTGTVAVVKFKVLKEETSSISFEDTTSVPNAIDGTVLFDWNGDRIQSGYSVIQPAVINLDMTKASYITMGYDKNAAEVGEIIKATVKINKITNFSGYQVNIKYDPTVLQAVNPKTGVAYTNSSLPTSGELLVSEDYGPIVQGVHKISEGILNLSRSYTALEVYRASESPEETGTLAVVGFKVLQKKATTVVFEDSETMPNGITGTTLFNWYGNRIQSGYFVIQPGEINSAPIATLEHHHHHH”, the “soluble on expression in E. coli” value was “soluble”.
With “MAQEVIKIRGGRTLNGEVNISGAKNSAVAIIPATLLAQGHVKLEGLPQISDVKTLVSLLEDLNIKASLNGTELEVDTTEIQNAALPNNKVESLRASYYMMGAMLGRFKKCVIGLPGGCPLGPRPIDQHIKGFKALGAEIDESSTTSMKIEAKELKGAHIFLDMVSVGATINIMLAAVYATGQTVIENAAKEPEVVDVANFLTSMGANIKGAGTSTIKINGVKELHGSEYQVIPDRIEAGTYMCIAAACGENVILNNIVPKHVETLTAKFSELGVNVDVRDERIRINNNAPYQFVDIKTLVYPGFATDLQQPITPLLFMANGPSFVTDTIYPERFKHVEELKRMGANIEVDEGTATIKPSTLHGAEVYASDLRAGACLIIAGLIAEGVTTIYNVKHIYRGYTDIVEHLKALGADIWTETV” the “soluble on expression in E. coli” value was “not soluble”.
In the case of “MAQKISINRGLGLGMAQLGAFARMGMMINVSAMGPQDGHANGGVGEGGIEMSRKSTWRSENDEIKTRKSTAFEPDLDFDMIDFRQPSGSSQYLYGFGFDNNAFGLADGQSDEDSVFM”, the “soluble on expression in E. coli” value is reported as “not soluble”.
With “MAQLENQILETLKPLIDANTGKSYVAAKNVKNLKCGDAEISLDVVLAYPAKSQFDAVRQQFEAALAPLAEGRAIKIAVSAQIVSHSAQRGVPLLPGVKNVIAVASGKGGVGKSTTAANLALALADEGARVGLLDADIYGPSQPLMMGLQGQRPETADGKLTPLSNHGIQTMSIGYLVDADQAMVWRGPMVSQALQQLLNDTRWDDLDYLVIDMPPGTGDVQLTLSQKVPVTGALIVTTPQDIALLDARKGVTMFQKVGVPILGLVENMAIHVCSNCGHAEHIFGEGGAVKMAQDFGVELLGSLPLDLAIRQAVDEGRPSVAADPSGKPAELYRAIARRVAVKVGEKAQDFSGKFPKIVIQNNLEHHHHHH” the “soluble on expression in E. coli” value was “not soluble”.
In the case of “MAQLQKDAQENECRELIEVPSGHDYQIRQYIEKYPQFLWKYSEGVTIPGYVLNIAEQLNSEYGNVENIPIDLYPCEYYRIVEHSMPTDIGLQPKRFDRIKENLTEKLQQVFRHQDADLYMPENHLIPTVACAVCIQGTWYRGKIENVPPRGIWMYVNLIDAGMSRQVMKSDVRRLPLAFGHYPPMVVKATIRGAVIHRMDRGKVDQFQNMIRNIDYLARCQITTCTEPFQIVLCHPKYEFMNMCSFLLAPRRGQPSQEGVWIPREIAKQLERENGFERNDYDDSGADSDFLEDEEEEDAGWDYGEGDDYAYLRSFPPACKIFRMSEDEFMVERIENERIIYLTSKDMLERRREAEEYLTKEKESLESLPDVWMAYGTSCSVFHQGTMKRASCCGEEGSTIQLLLIDYGISIEVSKSDVYNIPNKDEVNMEPFVTLVSIKSFPFIHYSRVKILQELLPRGTPVKFHRDRKCKEIPTKGEIYQMNGTSVEQSVSEIVSSCQLDLECNSLLPSRIANNELTQLLAYCINYEFMYKSPNVVIYKKSKRVKSHF”, the “soluble on expression in E. coli” value is reported as “not soluble”.
With “MAQTTINEQTLVNEQRLLAYDCFQNTNKVGLLSALEYLDFVNHLVKSNQIKYLLVPSASQTVYQHVFFDHFRFLSFDNNLLSGFGLAIRLHKEAETVFMLVEKTKQTETEIKKLLEAVKQFSGLKLVVLLVNSPFENKRTKLSYEIVKIIKKHGYQYKRYCRKNFEKKFFNTWNHQKRKQKTKNNLFFVELNSQFAFGTSMANSNSFDLSFTSFKERFNTENNLDIDVHFNVPHKYLLKNLESIKHHLQIDNNTIWKQAFINFAGQLLLYFENLQVFAQEASTLQVNAIVIKQDAYFIVEVMKGYNYDNNCICLLEANKDQNVGLTTASTNTLIGDIKQYEPCFFIEK” the “soluble on expression in E. coli” value was “soluble”.
For “MARIRARGSACPSQCSCSGTTVDCSGKSLASVPTGIPTTTQVLYLYDNQITKLEPGVFDRLTQLTRLDLDNNQLTVLPAGVFDKLTQLTQLSLNDNQLKSIPRGAFDNLKSLTHIWLLNNPWDCACSDILYLSRWISQHPGLVFGYLNLDPDSARCSGTNTPVRAVTEASTSPSKCPG”, the “soluble on expression in E. coli” value was “soluble”.
For “MARKTKEDTQATREGILDAAEACFHEHGVARTTLEMIGARAGYTRGAVYWHFKNKSEVLAAIVERVHLPFMQELERTSTDQRDTPVHDLRAVMIHSFIELSEDERLRKTMEIMLRSDASANTRVLTEMQQAGFRDALDRMERALRRARDLGQLREGADPKIAARMLHATVLGVLHGAMVEPELMDLKRDGMLALDMTLAAYVKDGVFVPGTVPEPLPEA”, the “soluble on expression in E. coli” value was “soluble”.
With “MARMYRALTRDIEVTVDPYYLEEQSDPDDDRYVWGYKVVIANNSDVPVKLVNRYWHITDQNGQVDEVYGPGVVGEQPQLKPGDSYEYSSGCPLDTPSGLMFGHYEMETENGEVFNVTIPAFSLDSPGLMRVLNAAALEHHHHHH” the “soluble on expression in E. coli” value was “soluble”.
In the case of “MARPLEQAVAAIVCTFQEYAGRCGDKYKLCQAELKELLQKELATWTPTEFRECDYNKFMSVLDTNKDCEVDFVEYVRSLACLCLYCHEYFKDCPSEPPCSQ”, the “soluble on expression in E. coli” value is reported as “soluble”.
For “MARYYVLDLSEDFRRELRETLAEMVNPVEVHVFLSKSGCETCEDTLRLMKLFEEESPTRNGGKLLKLNVYYRESDSDKFSEFKVERVPTVAFLGGEVRWTGIPAGEEIRALVEVIMRLSEDESGLEDATKEALKSLKGRVHIETIITPSCPYCPYAVLLAHMFAYEAWKQGNPVILSEAVEAYENPDIADKYGVMSVPSIAINGYLVFVGVPYEEDFLDYVKSAAEGRLTVKGPIRAGEAEEL”, the “soluble on expression in E. coli” value was “soluble”.
With “MASEVPQVVSLDPTSIPIEYNTPIHDIKVQVYDIKGGCNVEEGLTIFLVNNPGKENGPVKISSKVNDKQVSEFLKDENMEKFNVKLGTSKHFYMFNDNKNSVAVGYVGCGSVADLSEADMKRVVLSLVTMLHDNKLSKLTVVFEINVDKNLFRFFLETLFYEYMTDERFKSTDKNVNMEYIKHLGVYINNADTYKEEVEKARVYYFGTYYASQLIAAPSNYCNPVSLSNAAVELAQKLNLEYKILGVKELEELKMGAYLSVGKGSMYPNKFIHLTYKSKGDVKKKIALVGKGITFDSGGYNLKAAPGSMIDLMKFDMSGCAAVLGCAYCVGTLKPENVEIHFLSAVCENMVSKNSYRPGDIITASNGKTIEVGNTDAEGRLTLADALVYAEKLGVDYIVDIATLTGAMLYSLGTSYAGVFGNNEELINKILQSSKTSNEPVWWLPIINEYRATLNSKYADINQISSSVKASSIVASLFLKEFVQNTAWAHIDIAGVSWNFKARKPKGFGVRLLTEFVLNDALHHHHHH” the “soluble on expression in E. coli” value was “soluble”.
In the case of “MASGDLVHYVITVMLHEDTLTEINELNNYLTRDGFLLTMTDDEGNIHELGTNTFGLISTQSEEEIRELVSGLTQSATGKDPEITITTWEEWNSNRK”, the “soluble on expression in E. coli” value is reported as “not soluble”.
With “MASHIVGYPRMGPKRELKFALESFWDGKSTAEDLQKVSADLRSSIWKQMSAAGTKFIPSNTFAHYDQVLDTTAMLGAVPPRYGYTGGEIGLDVYFSMARGNASVPAMEMTKWFDTNYHYIVPELGPEVNFSYASHKAVNEYKEAKALGVDTVPVLVGPVSYLLLSKAAKGVDKSFELLSLLPKILPIYKEVITELKAAGATWIQLDEPVLVMDLEGQKLQAFTGAYAELESTLSGLNVLVETYFADIPAEAYKTLTSLKGVTAFGFDLVRGTKTLDLVKAGFPEGKYLFAGVVDGRNIWANDFAASLSTLQALEGIVGKDKLVVSTSCSLLHTAVDLINETKLDDEIKSWLAFAAQKVVEVNALAKALAGQKDEALFSANAAALASRRSSPRVTNEGVQKAAAALKGSDHRRATNVSARLDAQQKKLNLPILPTTTIGSFPQTVELRRVRREYKAKKVSEEDYVKAIKEEIKKVVDLQEELDIDVLVHGEPERNDMVEYFGEQLSGFAFTANGWVQSYGSRCVKPPVIYGDVSRPKAMTVFWSAMAQSMTSRPMKGMLTGPVTILNWSFVRNDQPRHETCYQIALAIKDEVEDLEKGGIGVIQIDEAALREGLPLRKSEHAFYLDWAVHSFRITNCGVQDSTQIHTHMCYSHFNDIIHSIIDMDADVITIENSRSDEKLLSVFREGVKYGAGIGPGVYDIHSPRIPSSEEIADRVNKMLAVLEQNILWVNPDCGLKTRKYTEVKPALKNMVDAAKLIRSQLASAK” the “soluble on expression in E. coli” value was “soluble”.
For “MASLWRAVIGGQNNNSEDYGGVEFWSNPERTGWLTKQGEYIKTWRRRWFVLKQGKLFWFKDSDVTRVSRPRGVVPVESCLTAKGAEDVLNKQNAFELSTRNETMYFIADSEKEKEDWINSIGRSIVQNSRSVTDSEIVDYDNKH”, the “soluble on expression in E. coli” value was “soluble”.
With “MASPVIYQAEDAIIYNAILETVNAGYTGSCYVNYHNEVGGYIEWNVNAPSSGSYALIFRYANGTTANRPMRITVNGNIVKPSMDFVSTGAWTTWNEAGIVANLNQGNNVIRATAIASDGGPNVDYLKVFSANAFQPVSLEHHHHHH” the “soluble on expression in E. coli” value was “soluble”.
For “MASRGKTETSKLKQNLEEQLDRLMQQLQDLEECREELDTDEYEETKKETLEQLSEFNDSLKKIMSGNMTLVDELSGMQLAIQAAISQAFKTPEVIRLFAKKQPGQLRTRLAEMDRDLMVGKLERDLYTQQKVEILTALRKLGEKLTADDEAFLSANAGAILSQFEKVSTDLGSGDKILALASFEVEKTKK”, the “soluble on expression in E. coli” value was “not soluble”.
With “MASSGDYDEIIKSISDAPPTHYMVKIESFSLLTKHAIERYETESFEAGGYKWKLVLYPNGNKSKNTKDHVSVYLSLADSSSLSPGWEVYAVFRLYLLDQNKDNYLILQGNERRFHSVKREWGFDKFIPTGTFSDASNGYLMEDTCMFGADVFVSKERRSGRGECLSMIKDATSSKHVWKIENFSKLDKESYDSNAFFAGDRKWKIEFYPTGTKQGTGTHLSIYLTLVDPETISDGTKIFVEFTIRIFDQLQGRHIAGKVTKWFSRSSSEHGWVKYVSMVYFTQPNSGLLLKDVCLVEADVCVHGITSAI” the “soluble on expression in E. coli” value was “soluble”.
